The supplement of paper PMC7877785
± gives the uncertainty stated by the source.

Assay: self-splicing fitness, log relative to wild type (ln ratio); higher = more splicing; Tetrahymena group I intron in knt gene, E. coli kanamycin selection, DiMSum; sequences stand for … in CUCUCU…GGAGGGAAAAGUUAUCAGGCAUGCACCUGGUAGCUAGUCUUUAAACCAAUAGAUUGCAUCGGUUUAAAAGGCAAGACCGUCAAAUUGCGGGAAAGGGGUCAACAGCCGUUCAGUACCAAGUCUCAGGGGAAACUUUGAGAUGGCCUUGCAAAGGGUAUGGUAAUAAGCUGACGGACAUGGUCCUAACCACGCAGCCAAGUCCUAAGUCAACAGAUCUUCUGUUGAUAUGGAUGCAGUUCACAGACUAAAUGUCGGUCGGGGAAGAUGUAUUCUUCUCAUAAGAUAUAGUCGGACCUCUCCUUAAUGGGAGCUAGCGGAUGAAGUGAUGCAACACUGGAGCCGCUGGGAACUAAUUUGUAUGCGAAAGUAUAUUGAUUAGUUUUGGAGUACUCGUGGUCG
Outline: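 The eight P1ex-region nucleotides of an intron in the knt kanamycin-resistance gene on pET-22b(+) were all randomised and the library put into E. coli BL21(DE3). Six replicate transformations were grown overnight at 37°C or 30°C on LB agar with or without 25 μg/mL kanamycin, together with 100 μg/mL carbenicillin, 50 μM IPTG and 0.2% rhamnose. Colonies were pooled and amplicon-sequenced on an Illumina HiSeq 2500. Fitness from DiMSum is the error-weighted combination of wild-type-normalised replicate fold changes, kanamycin over none.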

Sequence | self-splicing fitness (ln) (30 °C) | self-splicing fitness (ln) (37 °C)
UGAAAGCAAUAUUACGUGGC | -3.37 ± 0.17 | -2.73 ± 0.25
GAAUAGCAAUAUUACGAAGG | -2.77 ± 0.27 | –
UCUCAGCAAUAUUACGUGUG | -2.33 ± 0.098 | -2.27 ± 0.11
UCGGAGCAAUAUUACGCAUU | – | -2.14 ± 0.27
UUGUAGCAAUAUUACGGAAA | -2.55 ± 0.39 | -1.2 ± 0.22
ACAGAGCAAUAUUACGACGC | -1.19 ± 0.13 | -0.298 ± 0.14
CUAUAGCAAUAUUACGCUAG | -3.14 ± 0.41 | -2.99 ± 0.47
UUCCAGCAAUAUUACGUUCA | -0.829 ± 0.13 | 0.389 ± 0.12
AGGUAGCAAUAUUACGUAAC | -2.092 ± 0.019 | -1.18 ± 0.035
AACGAGCAAUAUUACGUCUU | -1.33 ± 0.074 | -0.279 ± 0.093
ACGGAGCAAUAUUACGCGCA | -1.39 ± 0.23 | -1.64 ± 0.17
GGGGAGCAAUAUUACGUGGG | -2.75 ± 0.32 | –
AAUAAGCAAUAUUACGUUCC | -1.96 ± 0.14 | -1.48 ± 0.18
GAACAGCAAUAUUACGUACU | -1.26 ± 0.077 | -0.125 ± 0.1
AUCUAGCAAUAUUACGGGCA | -1.25 ± 0.15 | -0.862 ± 0.18
GAGAAGCAAUAUUACGCCGG | -2.05 ± 0.44 | 0.0344 ± 0.4
GACUAGCAAUAUUACGGCUG | -1.04 ± 0.079 | -0.193 ± 0.087
CCACAGCAAUAUUACGAGAC | -3.7 ± 0.2 | -3.01 ± 0.23
UAGCAGCAAUAUUACGCAUA | -1.09 ± 0.07 | -0.101 ± 0.079
GGGCAGCAAUAUUACGCAAU | -0.2 ± 0.071 | -0.127 ± 0.085
AGCAAGCAAUAUUACGCACU | -1.89 ± 0.11 | -1.37 ± 0.14
AAUUAGCAAUAUUACGUUAA | -1.19 ± 0.12 | -0.801 ± 0.17
GAAAAGCAAUAUUACGCUAC | -2.67 ± 0.27 | -2.37 ± 0.29
AACCAGCAAUAUUACGCCCU | 0.309 ± 0.089 | -0.381 ± 0.13
CAGAAGCAAUAUUACGCAAU | -4.46 ± 0.42 | -2.79 ± 0.24

Sequence | self-splicing fitness (ln) (30 °C) | self-splicing fitness (ln) (37 °C)
UUCGAGCAAUAUUACGUUUA | -2 ± 0.16 | -1.54 ± 0.16
UCAAAGCAAUAUUACGAGAC | -3.15 ± 0.17 | -2.76 ± 0.22
AACUAGCAAUAUUACGAACA | -1.12 ± 0.07 | -0.611 ± 0.081
UAUUAGCAAUAUUACGCAUG | -0.961 ± 0.081 | -0.197 ± 0.11
CCCCAGCAAUAUUACGAAAA | -3.6 ± 0.26 | -2.57 ± 0.26
UCCGAGCAAUAUUACGGUAA | -2.21 ± 0.18 | -1.08 ± 0.12
GAAAAGCAAUAUUACGCACU | -0.498 ± 0.098 | 0.475 ± 0.1
UGCUAGCAAUAUUACGUUGA | -2.84 ± 0.18 | -2.43 ± 0.24
UUGGAGCAAUAUUACGGUCC | -3.7 ± 0.34 | –
AACAAGCAAUAUUACGGGAA | -1.57 ± 0.097 | -1.86 ± 0.13
GGAGAGCAAUAUUACGUUCA | -1.39 ± 0.17 | -0.277 ± 0.21
ACGUAGCAAUAUUACGCGAG | -3.43 ± 0.19 | -0.232 ± 0.11
UGGUAGCAAUAUUACGCGCU | -2.58 ± 0.18 | -1.31 ± 0.18
GUCCAGCAAUAUUACGCGGC | -2.27 ± 0.26 | -2.6 ± 0.48
GAUUAGCAAUAUUACGUCCA | -2.04 ± 0.21 | 0.198 ± 0.18
ACCAAGCAAUAUUACGACCC | -1.37 ± 0.096 | -0.181 ± 0.15
CUAAAGCAAUAUUACGCCGG | -0.951 ± 0.16 | -0.177 ± 0.18
ACCAAGCAAUAUUACGACUG | -1.11 ± 0.062 | -1.07 ± 0.099
AAGGAGCAAUAUUACGUGCC | -3.03 ± 0.37 | -0.905 ± 0.39
GCCAAGCAAUAUUACGGCUG | -3.81 ± 0.13 | -3.25 ± 0.19
GAGCAGCAAUAUUACGUUCA | -1.38 ± 0.13 | -0.931 ± 0.13
CGUAAGCAAUAUUACGGAAC | – | -1.39 ± 0.39
AUCAAGCAAUAUUACGAGAU | -2.81 ± 0.16 | -2.67 ± 0.21
AAUCAGCAAUAUUACGGUGC | -0.892 ± 0.072 | -0.189 ± 0.082
